The values below come from paper PMC11143242 (2024).

One may read the Kd as the equilibrium constant for the complex coming apart. A low value points to tighter binding. The term koff denotes the first-order rate constant of dissociation.

Common to all, as to test: SPR
(In general: SPR reads the build-up and loss of mass on a sensor chip optically.)

The target of experiment [1] is T1, VARV B7 (variola virus (VARV)).
For experiment [2], the target named is T2, CPXV CPXV199 (cowpox virus (CPXV)).
Experiment [3] addresses T3, VACV B5 (vaccinia virus (VACV), UniProt Q01227 18-317).
Experiment [4] has as its target T1, VARV B7. This is another data set of the same source.
For a further experiment, the target named is MPXV B6 protein (monkeypox virus (MPXV)).
Experiment [5] has as its target T2, CPXV CPXV199. This is another data set of the same source.
Experiment [6] addresses T3, VACV B5. This is another data set of the same source.

B1: hMB668 (antibody, V domains shown)
VH: QVQLVQSGAEVKKPGSSVKVSCKSSGGTFSDYAINWVRQAPGQGLEWMGRILPIVGVPNYAQKFQGRVTITADKSSSTAYKEVSGLRSEDTAVYYCARRSGINGHGLDVWGQGTTVIVSS
VL: DIVMTQSPLSLPVTPGEPASISCRSSQSLLNTNGYNYLEWYLHKPGQSPQLLIYLGSHRASGVPDRFSGSGSGTDFTLKISRAEPEDVGVYYCMQTLQTQGYTFGQGTKLEIK
For B1, the Kd with VARV B7 [1] was 15.8 nM; with CPXV CPXV199 [2], 27.2 nM; with VACV B5 [3], 3.1 nM. In addition, the off-rate constant (koff) turned out to be 5.5e-05 s⁻¹ in the experiment with VARV B7 [4], 7.8e-05 s⁻¹ with MPXV B6 protein, 0.00011 s⁻¹ with CPXV CPXV199 [5] and 8.2e-05 s⁻¹ with VACV B5 [6].

B2: hMB621 (antibody, V domains shown)
VH: QVQLVQSGGGVVQPGRSLRLSCVASGFSISTYPLHWVRQAPGKGLEWVAVISHDGRNKYYADSVKGRFSISRDNSKNTVYLQMNSLRVEDTAVYYCARAYPYAFDVWGQGTLVTVSS
VL: EIVLTQSPATLSVSPGETATLSCRASQSVRNDLAWYQQKPGQAPRLLIYGASTRASGIPARFSGSGSGTEFTLTISSLQSEDFAIYYCQQYKDWPPWTFGQGTKVEIK
On to B2, for which the results for the dissociation constant (Kd) with VARV B7 [1], in the experiment with CPXV CPXV199 [2] and in the experiment with VACV B5 [3] were 5.1 nM, 2.6 nM and 2.8 nM, respectively. Also, the koff with VARV B7 [4] amounted to 0.00019 s⁻¹; with MPXV B6 protein, 9.7e-05 s⁻¹; with CPXV CPXV199 [5], 0.00011 s⁻¹; with VACV B5 [6], 0.00017 s⁻¹.
